Test results: patent US20260055162A1

Key:
Assay in all cases: cell-based or functional assay
[1] = molecular target: AA-SR-105 (SR-105), Fas ECD-Fas TM-CD3z ICD
[2] = molecular target: AA-SR-120 (SR-120), Fas ECD-CD28 TM-CD3z ICD
[3] = molecular target: AA-SR-115 (SR-115), BTLA ECD-CD28 TM-CD3z ICD
[4] = molecular target: AA-SR-100 (SR-100), BTLA ECD-BTLA TM-CD3z ICD
[5] = molecular target: AA-SR-127 (SR-127), TACTILE ECD-CD28 TM-CD3z ICD
[6] = molecular target: AA-SR-112 (SR-112), TACTILE ECD-TACTILE TM-CD3z ICD
[7] = molecular target: AA-SR-117 (SR-117), CD200R ECD-CD28 TM-CD3z ICD
[8] = molecular target: AA-SR-102 (SR-102), CD200R ECD-CD200R TM-CD3z ICD
[9] = molecular target: AA-SR-104 (SR-104), CTLA4 ECD-CTLA4 TM-CD3z ICD
[10] = molecular target: AA-SR-119 (SR-119), CTLA4 ECD-CD28 TM-CD3z ICD
Chain of AA-SR-119 (SR-119), CTLA4 ECD-CD28 TM-CD3z ICD (chain, as listed by the source limits assumed, form in doubt): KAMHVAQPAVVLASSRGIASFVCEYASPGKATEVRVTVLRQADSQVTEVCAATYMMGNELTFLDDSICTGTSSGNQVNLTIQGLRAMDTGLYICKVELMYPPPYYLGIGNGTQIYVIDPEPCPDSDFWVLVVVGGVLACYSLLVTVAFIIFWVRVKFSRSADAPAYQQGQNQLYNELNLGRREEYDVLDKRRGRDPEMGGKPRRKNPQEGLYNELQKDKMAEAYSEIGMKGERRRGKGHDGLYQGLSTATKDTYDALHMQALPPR

Chain of AA-SR-127 (SR-127), TACTILE ECD-CD28 TM-CD3z ICD (chain, as listed by the source limits assumed, form in doubt): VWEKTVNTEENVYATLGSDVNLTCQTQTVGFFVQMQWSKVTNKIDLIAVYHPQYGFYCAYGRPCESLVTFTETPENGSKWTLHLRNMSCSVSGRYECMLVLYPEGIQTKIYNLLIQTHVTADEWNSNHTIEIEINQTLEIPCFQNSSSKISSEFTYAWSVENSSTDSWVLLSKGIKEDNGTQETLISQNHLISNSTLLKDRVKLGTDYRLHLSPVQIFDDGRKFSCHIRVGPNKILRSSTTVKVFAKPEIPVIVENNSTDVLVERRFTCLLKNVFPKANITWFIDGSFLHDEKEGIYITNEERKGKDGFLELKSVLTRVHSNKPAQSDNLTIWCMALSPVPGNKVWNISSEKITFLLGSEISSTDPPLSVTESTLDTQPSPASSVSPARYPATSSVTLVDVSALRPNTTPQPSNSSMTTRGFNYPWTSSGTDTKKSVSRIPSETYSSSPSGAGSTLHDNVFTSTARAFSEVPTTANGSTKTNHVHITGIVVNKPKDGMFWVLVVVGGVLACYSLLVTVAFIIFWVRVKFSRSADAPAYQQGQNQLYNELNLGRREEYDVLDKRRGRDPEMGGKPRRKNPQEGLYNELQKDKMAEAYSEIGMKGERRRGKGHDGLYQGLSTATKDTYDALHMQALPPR
Chain of FasL recombinant protein (P48023 134-281 limits assumed): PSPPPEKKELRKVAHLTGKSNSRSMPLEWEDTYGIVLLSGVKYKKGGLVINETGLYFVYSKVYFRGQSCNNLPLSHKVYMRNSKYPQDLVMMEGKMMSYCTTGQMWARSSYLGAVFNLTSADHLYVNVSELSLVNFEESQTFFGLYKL
Chain of AA-SR-120 (SR-120), Fas ECD-CD28 TM-CD3z ICD (chain, as listed by the source limits assumed, form in doubt): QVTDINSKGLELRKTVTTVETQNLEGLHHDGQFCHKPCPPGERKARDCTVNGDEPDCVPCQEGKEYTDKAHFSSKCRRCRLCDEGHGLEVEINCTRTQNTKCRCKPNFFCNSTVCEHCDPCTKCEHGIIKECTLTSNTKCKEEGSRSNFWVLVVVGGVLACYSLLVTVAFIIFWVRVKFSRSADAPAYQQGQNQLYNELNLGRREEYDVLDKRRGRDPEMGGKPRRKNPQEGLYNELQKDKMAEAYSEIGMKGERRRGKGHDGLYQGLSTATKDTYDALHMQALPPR
Chain of AA-SR-100 (SR-100), BTLA ECD-BTLA TM-CD3z ICD (chain, as listed by the source limits assumed, form in doubt): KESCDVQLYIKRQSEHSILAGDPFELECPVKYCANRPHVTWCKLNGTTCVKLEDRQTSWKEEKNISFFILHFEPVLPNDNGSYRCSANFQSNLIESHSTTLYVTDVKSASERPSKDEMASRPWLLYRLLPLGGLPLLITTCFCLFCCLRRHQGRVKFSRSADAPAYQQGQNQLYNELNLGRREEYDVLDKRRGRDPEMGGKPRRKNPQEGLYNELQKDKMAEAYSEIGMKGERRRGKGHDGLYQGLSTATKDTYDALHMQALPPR
Chain of AA-SR-105 (SR-105), Fas ECD-Fas TM-CD3z ICD (chain, as listed by the source limits assumed, form in doubt): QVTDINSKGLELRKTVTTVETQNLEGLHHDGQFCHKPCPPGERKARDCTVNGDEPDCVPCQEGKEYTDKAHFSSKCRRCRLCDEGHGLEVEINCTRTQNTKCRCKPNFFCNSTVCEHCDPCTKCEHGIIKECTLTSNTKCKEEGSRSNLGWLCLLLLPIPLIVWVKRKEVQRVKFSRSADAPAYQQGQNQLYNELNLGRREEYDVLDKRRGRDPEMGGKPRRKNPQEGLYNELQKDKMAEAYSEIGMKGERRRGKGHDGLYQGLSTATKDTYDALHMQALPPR
Chain of AA-SR-117 (SR-117), CD200R ECD-CD28 TM-CD3z ICD (chain, as listed by the source limits assumed, form in doubt): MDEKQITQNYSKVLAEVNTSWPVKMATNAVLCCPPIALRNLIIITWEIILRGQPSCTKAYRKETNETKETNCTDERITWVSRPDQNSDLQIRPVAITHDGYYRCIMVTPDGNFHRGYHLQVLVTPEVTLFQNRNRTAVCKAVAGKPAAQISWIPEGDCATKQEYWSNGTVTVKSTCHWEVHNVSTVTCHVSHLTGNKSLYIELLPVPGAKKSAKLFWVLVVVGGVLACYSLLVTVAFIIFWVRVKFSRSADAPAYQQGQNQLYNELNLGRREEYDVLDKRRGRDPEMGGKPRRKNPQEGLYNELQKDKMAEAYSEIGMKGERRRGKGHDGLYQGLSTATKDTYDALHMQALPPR
Chain of AA-SR-104 (SR-104), CTLA4 ECD-CTLA4 TM-CD3z ICD (chain, as listed by the source limits assumed, form in doubt): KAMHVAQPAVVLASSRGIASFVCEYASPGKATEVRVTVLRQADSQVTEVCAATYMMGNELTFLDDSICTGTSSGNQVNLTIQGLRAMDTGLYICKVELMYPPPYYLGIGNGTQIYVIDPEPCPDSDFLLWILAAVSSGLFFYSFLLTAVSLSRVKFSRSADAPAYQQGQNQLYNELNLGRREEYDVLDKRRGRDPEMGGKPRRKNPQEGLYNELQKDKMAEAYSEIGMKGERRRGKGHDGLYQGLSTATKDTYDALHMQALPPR
Chain of AA-SR-112 (SR-112), TACTILE ECD-TACTILE TM-CD3z ICD (chain, as listed by the source limits assumed, form in doubt): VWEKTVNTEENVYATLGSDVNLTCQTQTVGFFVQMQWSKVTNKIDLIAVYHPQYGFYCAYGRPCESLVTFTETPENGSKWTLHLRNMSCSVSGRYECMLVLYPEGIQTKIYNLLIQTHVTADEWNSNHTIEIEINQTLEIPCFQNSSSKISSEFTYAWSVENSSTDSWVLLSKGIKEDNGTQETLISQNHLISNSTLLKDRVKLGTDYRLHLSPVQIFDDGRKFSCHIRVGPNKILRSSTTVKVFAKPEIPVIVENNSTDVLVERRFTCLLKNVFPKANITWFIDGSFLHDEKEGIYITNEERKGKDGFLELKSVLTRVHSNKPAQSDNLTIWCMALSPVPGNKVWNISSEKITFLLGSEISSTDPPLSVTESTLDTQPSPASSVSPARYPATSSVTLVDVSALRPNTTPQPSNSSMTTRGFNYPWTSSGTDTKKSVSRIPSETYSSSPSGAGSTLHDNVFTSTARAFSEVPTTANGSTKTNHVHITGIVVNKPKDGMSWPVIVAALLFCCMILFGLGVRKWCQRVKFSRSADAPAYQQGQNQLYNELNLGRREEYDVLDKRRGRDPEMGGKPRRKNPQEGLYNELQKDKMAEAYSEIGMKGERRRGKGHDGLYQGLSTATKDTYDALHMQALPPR
Chain of AA-SR-102 (SR-102), CD200R ECD-CD200R TM-CD3z ICD (chain, as listed by the source limits assumed, form in doubt): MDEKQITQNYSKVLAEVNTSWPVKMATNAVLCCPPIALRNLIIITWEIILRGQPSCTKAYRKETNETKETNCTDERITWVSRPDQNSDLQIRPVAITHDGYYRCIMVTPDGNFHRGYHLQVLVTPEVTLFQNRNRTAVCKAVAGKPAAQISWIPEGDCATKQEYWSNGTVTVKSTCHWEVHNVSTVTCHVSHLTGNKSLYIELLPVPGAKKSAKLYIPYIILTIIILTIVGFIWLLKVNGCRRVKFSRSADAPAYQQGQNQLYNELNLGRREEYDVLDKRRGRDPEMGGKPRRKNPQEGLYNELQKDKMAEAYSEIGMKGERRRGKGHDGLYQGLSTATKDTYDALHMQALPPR
Chain of AA-SR-115 (SR-115), BTLA ECD-CD28 TM-CD3z ICD (chain, as listed by the source limits assumed, form in doubt): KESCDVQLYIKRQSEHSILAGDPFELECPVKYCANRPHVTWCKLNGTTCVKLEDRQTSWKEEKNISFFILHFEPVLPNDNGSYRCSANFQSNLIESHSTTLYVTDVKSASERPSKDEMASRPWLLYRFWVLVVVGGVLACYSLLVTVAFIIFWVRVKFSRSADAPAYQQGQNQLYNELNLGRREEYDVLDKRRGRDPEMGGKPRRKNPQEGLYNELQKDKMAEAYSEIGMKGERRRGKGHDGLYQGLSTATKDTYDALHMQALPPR

FasL recombinant protein (from UniProt P48023 134-281) (ligand)
CD69, fold-change of MFI over no stimulation, High (10 ug/mL) [1]: 70.2 fold | CD69, fold-change of MFI over no stimulation, Low (0.4 ug/mL) [1]: 8.4 fold | CD69, fold-change of MFI over no stimulation, Med. (2 ug/mL) [1]: 35.7 fold | GFP, fold-change of MFI over no stimulation, High (10 ug/mL) [1]: 7.3 fold | GFP, fold-change of MFI over no stimulation, Low (0.4 ug/mL) [1]: 1 fold | GFP, fold-change of MFI over no stimulation, Med. (2 ug/mL) [1]: 4.6 fold | CD69, fold-change of MFI over no stimulation, High (10 ug/mL) [2]: 162 fold | CD69, fold-change of MFI over no stimulation, Low (0.4 ug/mL) [2]: 40.5 fold | CD69, fold-change of MFI over no stimulation, Med. (2 ug/mL) [2]: 129 fold | GFP, fold-change of MFI over no stimulation, High (10 ug/mL) [2]: 10.1 fold | GFP, fold-change of MFI over no stimulation, Low (0.4 ug/mL) [2]: 2.4 fold | GFP, fold-change of MFI over no stimulation, Med. (2 ug/mL) [2]: 11.2 fold

anti-BTLA mAb clone MIH26 (antibody)
CD69, fold-change of MFI over no stimulation, High (10 ug/mL) [3]: 9.2 fold | CD69, fold-change of MFI over no stimulation, Low (0.4 ug/mL) [3]: 10.8 fold | CD69, fold-change of MFI over no stimulation, Med. (2 ug/mL) [3]: 14.1 fold | GFP, fold-change of MFI over no stimulation, High (10 ug/mL) [3]: 3.5 fold | GFP, fold-change of MFI over no stimulation, Low (0.4 ug/mL) [3]: 5.1 fold | GFP, fold-change of MFI over no stimulation, Med. (2 ug/mL) [3]: 6.9 fold | CD69, fold-change of MFI over no stimulation, High (10 ug/mL) [4]: 125 fold | CD69, fold-change of MFI over no stimulation, Low (0.4 ug/mL) [4]: 62.7 fold | CD69, fold-change of MFI over no stimulation, Med. (2 ug/mL) [4]: 124 fold | GFP, fold-change of MFI over no stimulation, High (10 ug/mL) [4]: 13 fold | GFP, fold-change of MFI over no stimulation, Low (0.4 ug/mL) [4]: 6.1 fold | GFP, fold-change of MFI over no stimulation, Med. (2 ug/mL) [4]: 7.5 fold

anti-CD96 mAb clone NK92.39 (antibody)
CD69, fold-change of MFI over no stimulation, High (10 ug/mL) [5]: 2 fold | CD69, fold-change of MFI over no stimulation, Low (0.4 ug/mL) [5]: 1.1 fold | CD69, fold-change of MFI over no stimulation, Med. (2 ug/mL) [5]: 1.1 fold | GFP, fold-change of MFI over no stimulation, High (10 ug/mL) [5]: 1 fold | GFP, fold-change of MFI over no stimulation, Low (0.4 ug/mL) [5]: 1 fold | GFP, fold-change of MFI over no stimulation, Med. (2 ug/mL) [5]: 0.8 fold | CD69, fold-change of MFI over no stimulation, High (10 ug/mL) [6]: 3.9 fold | CD69, fold-change of MFI over no stimulation, Low (0.4 ug/mL) [6]: 3.3 fold | CD69, fold-change of MFI over no stimulation, Med. (2 ug/mL) [6]: 1 fold | GFP, fold-change of MFI over no stimulation, High (10 ug/mL) [6]: 1.2 fold | GFP, fold-change of MFI over no stimulation, Low (0.4 ug/mL) [6]: 1 fold | GFP, fold-change of MFI over no stimulation, Med. (2 ug/mL) [6]: 0.9 fold

anti-CD200R mAb clone OX-108 (antibody)
CD69, fold-change of MFI over no stimulation, High (10 ug/mL) [7]: 8.7 fold | CD69, fold-change of MFI over no stimulation, Low (0.4 ug/mL) [7]: 0.9 fold | CD69, fold-change of MFI over no stimulation, Med. (2 ug/mL) [7]: 1.1 fold | GFP, fold-change of MFI over no stimulation, High (10 ug/mL) [7]: 5.9 fold | GFP, fold-change of MFI over no stimulation, Low (0.4 ug/mL) [7]: 1.1 fold | GFP, fold-change of MFI over no stimulation, Med. (2 ug/mL) [7]: 0.9 fold | CD69, fold-change of MFI over no stimulation, High (10 ug/mL) [8]: 29.2 fold | CD69, fold-change of MFI over no stimulation, Low (0.4 ug/mL) [8]: 1.3 fold | CD69, fold-change of MFI over no stimulation, Med. (2 ug/mL) [8]: 4.9 fold | GFP, fold-change of MFI over no stimulation, High (10 ug/mL) [8]: 6.8 fold | GFP, fold-change of MFI over no stimulation, Low (0.4 ug/mL) [8]: 0.8 fold | GFP, fold-change of MFI over no stimulation, Med. (2 ug/mL) [8]: 1.4 fold

anti-CTLA-4 mAb clone 1003705 (antibody)
CD69, fold-change of MFI over no stimulation, High (10 ug/mL) [9]: 7.2 fold | CD69, fold-change of MFI over no stimulation, Low (0.4 ug/mL) [9]: 3.1 fold | CD69, fold-change of MFI over no stimulation, Med. (2 ug/mL) [9]: 5.6 fold | GFP, fold-change of MFI over no stimulation, High (10 ug/mL) [9]: 4.3 fold | GFP, fold-change of MFI over no stimulation, Low (0.4 ug/mL) [9]: 2.2 fold | GFP, fold-change of MFI over no stimulation, Med. (2 ug/mL) [9]: 3.8 fold | CD69, fold-change of MFI over no stimulation, High (10 ug/mL) [10]: 6.2 fold | CD69, fold-change of MFI over no stimulation, Low (0.4 ug/mL) [10]: 2.7 fold | CD69, fold-change of MFI over no stimulation, Med. (2 ug/mL) [10]: 4.5 fold | GFP, fold-change of MFI over no stimulation, High (10 ug/mL) [10]: 5.9 fold | GFP, fold-change of MFI over no stimulation, Low (0.4 ug/mL) [10]: 2.6 fold | GFP, fold-change of MFI over no stimulation, Med. (2 ug/mL) [10]: 4.6 fold
